Measurements taken from article PMC4358012.

T1: CebR-His6 (Streptomyces scabies 87-22, UniProt C9Z452 1-352)
T1 sequence: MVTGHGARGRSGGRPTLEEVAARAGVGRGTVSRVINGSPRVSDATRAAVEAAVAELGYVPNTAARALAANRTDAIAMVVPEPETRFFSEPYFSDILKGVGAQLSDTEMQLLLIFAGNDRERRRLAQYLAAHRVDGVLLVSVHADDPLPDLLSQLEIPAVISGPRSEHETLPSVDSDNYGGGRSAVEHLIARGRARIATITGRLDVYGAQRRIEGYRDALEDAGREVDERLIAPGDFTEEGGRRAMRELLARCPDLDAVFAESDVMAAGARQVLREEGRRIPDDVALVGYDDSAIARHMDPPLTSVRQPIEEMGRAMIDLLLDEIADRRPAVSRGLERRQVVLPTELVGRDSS

B1: cbstxtB probe (dsDNA)
DNA 1: CTCCCCCAGGGGGAGCGCTCCCACTGCGCTGTA
DNA 2: TACAGCGCAGTGGGAGCGCTCCCCCTGGGGGAG
B2: cbstxtR-A probe (dsDNA)
DNA 1: TGTCAATAAGCGGGAGCGCTCCCACAGCGCTCTC
DNA 2: GAGAGCGCTGTGGGAGCGCTCCCGCTTATTGACA

Target: T1, CebR-His6
Assay: EMSA

Row | Binder | binding result
1 | B1 | binds
2 | B2 | binds
